{"source": "the DeepSol protein solubility set", "data": [{"test": "soluble on expression in E. coli; label from the status in PepcDB or PDB records", "values": [{"sequence": "MAHHHHHHMGANGSKTASSSSAVPAATTTTGDNKGTVNRWYGAVSDASDADLGLAPDVSLSSDISTPEENAAKRKAYAHLQSPYARHQLAASMKGRGSSGNNGAEASATAHVNLIEQIYNEDFETIDHIQALRLPPMVSQQLKNTVRSEAERRCAEVEKTMARCLQDKMWTSWKCQKERDTYYHCVEEIEQRNLRPDPTNPHWVDMLTSFRWKYNLGVFHGEIIGRNNIMKQIWREHYPDRELPHPWVKDA", "soluble on expression in E. coli": "not soluble"}, {"sequence": "MAHHHHHHMGAPLREDPYNIKTPISDGTTIIGIIYEHGVMLACDTRTSSGTLVSNKCSRKINRINENIYACRSGASAHSQKVIELIKHFCLSMKCENRKKGRFHEDEVITDDLANEEDIDLSAINNPFGLAQNMDPNYVTKHKYFYEDKFMDFNPLVENVAHMTKKLLYANNHFLSCGLILGGYDKEKKQQLYSVNLNGSIVQRFDYAVSGSGSVYIQSYLQDKYKKNMSKKECFELILGCVKYAMYNDNSSGGIVRIVNMTKLFVEEFTVTNTQLHFDY", "soluble on expression in E. coli": "soluble"}, {"sequence": "MAHHHHHHMGGAHNEGVQDGGAQDATTLYDELYLLFDEYIVRNCKQPNTYESLFCKKEFVQFAKLHGTSVVVTSPKKEIKNKDEIIDELIYAFKLFAKYTSMCDFFSKNEEVDDINTIYLKFLLIPYILGVLCYETISMEIRSDRLKEAKLYFGEFINVVNVYKIAPVEDYLLDEGGEVNQAMNRRNIKVKRAKDEKKLQDFYDDMIKMNVKKGSSQNYNHLCFADHMEEEQIREIYLSLIKCKCLQTLNMMDLIDTEIEVLEMRNRQQVQDKQHQNGKPTQGTKDTHDGQPPHQNKHPKDGIKKPWLFTIKKNMPLADMTQMRNYYRDLVFTPAHNLPTISLEECAKIEMEYALKGEGMAPRSEEERRGNPKSGTIKGAAQNGTDDEEDYEKSSKEESEKELMDREWDDWKDMHQKGIGNKNRNVA", "soluble on expression in E. coli": "soluble"}, {"sequence": "MAHHHHHHMGIYIFCLFPKGGRESKWGKPTITTKKVQGMPFPHPSHHHHHYHQKQQKTHHCHPRCTLVFLRQARAHKAITPPDVQRRTQRLNAQGKTTKKKSYDDGPPFFLFEKKKKRKAERHKEKGEKEGKGNVNTYRIVKEKEKVNKYLIYFYNNNNNYYYTYVCVYIHTTT", "soluble on expression in E. coli": "not soluble"}, {"sequence": "MAHHHHHHMGKAAKGRTAMPGKLDTTEADKRTPKSIIIYRGEVGIHVRSLMHEWRNVFLPWSSKKLHGKNKSLKDFLAVAATFSASHLQLFTAPSQGTSLRIMRFFNGPTLSFRVLSFTLHKEIVAKQRRPVAVDRAAWEVAPIVVLNNFTHPDLAHRAEVPLLTATFKALFPSLNVQTIQSSEIQRICLFHYDHVEHVVEVRHYYINARTVGVTKTVKKLLENRRPTKLGTLESIDEVLDREDAWSDTDG", "soluble on expression in E. coli": "not soluble"}, {"sequence": "MAHHHHHHMGLKRLAKAAKITSKHMLLLNRREPYKPVTSDRVMIENRRRLEDFEAKNAEGIVFVPDTALPPWQKSIATNLKQQATQMNFRGFRVRVADKQDEPGFPTHFR", "soluble on expression in E. coli": "soluble"}, {"sequence": "MAHHHHHHMGNTNSSADRSNADDRGVHSEFMYRYETTKKLKLSYMMLKKNVATAVMTMEVTPQHLRDVGTGYSNVCACLKHGGSGGTNSCIQGQAAGREQASISRSRIDREFADESYKGFQTFCEAMDDIKAGVCVTSRTAIHERITVELDRMVLTAERVLKQGRKTMRSMAHFTKVARQVSRRERAAVDQGKDLSSSKRYAKAVKERNEKESLYKTELEAFDQLYEHVMVVSQEFCSSTTDIFLDCIVGYYREIVATIDVSDTPQCSRLQSRFRSREREVVLHQASDAGFCAMPAGHMDGSKSLSSTVPLKWD", "soluble on expression in E. coli": "soluble"}, {"sequence": "MAHHHHHHMGRLEIRVCGARNVANVQRVGKPDPYVKVKLGNSKKSQIKYKTHVAENCLNPVWNELFKFQVADYDSMQVVFELWNDNVIVDDLLGSYSLSLNGLTRGVVIDTWVLLEGTKGSSSELHLRVLAVDFGRDPGPGDRLTLSLEGDTMMPSTGQTYRPPKNYVPPTQGIVLQSYPPAPLGPPPPVVYSPSAAPRPQVQYGYVTPPQPQRYACGAPPPPPQQPPSQGYGYGAVQAPQNYSYGAPPPPQPMYGAPQLPQCLPYAAGPPPPQMYGPPPPQRRPVQMAYGIPPDM", "soluble on expression in E. coli": "not soluble"}]}]}
